Test results reported in PMC8591604 (Journal of Medicinal Chemistry, 2021).
[ ]: non-standard residue; d: D form. pY = N[C@@H](Cc1ccc(OP(=O)(O)O)cc1)C(=O)O

Molecular target: T1, N-SH2 domain of SHP2 (residues 2–111) (human, UniProt Q06124 2-111)
T1 construct: SHP2 (PTPN11), human, N-terminal SH2 domain, residues 2-111; also called wild-type N-SH2; source: E. coli (DE3) Rosetta2, purified (Ni-NTA)
T1 sequence (looked up): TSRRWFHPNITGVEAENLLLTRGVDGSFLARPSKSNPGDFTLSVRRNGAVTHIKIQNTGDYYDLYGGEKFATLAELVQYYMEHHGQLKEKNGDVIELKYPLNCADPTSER
Experiment: fluorescence polarisation; fluorescence anisotropy, displacement: 1.0 nM CF-P9 with 40 nM N-SH2 titrated with unlabelled peptide; fluorescence buffer
Details: both partners purified

- binding result: binds
B1: P8, unlabeled IRS-1 pY1172 peptide, residues −2 to +5 (peptide)
peptide: Ac-LN[pY]IDLDL-NH2
SMILES: CC[C@H](C)[C@H](NC(=O)[C@H](Cc1ccc(OP(=O)(O)O)cc1)NC(=O)[C@H](CC(N)=O)NC(=O)[C@H](CC(C)C)NC(C)=O)C(=O)N[C@@H](CC(=O)O)C(=O)N[C@@H](CC(C)C)C(=O)N[C@@H](CC(=O)O)C(=O)N[C@@H](CC(C)C)C(N)=O
notes: IRS-1, residues −2 to +5 around pY1172 (rat numbering; P9 without residue −3); source: synthetic peptide
